Assay results published in article PMC11244893 (bioRxiv, 2024).

Molecular target: the molecule itself
Assay: SEC + other: diffusion NMR

B1: full-length, wild-type phosphate starvation response like protein-4 (PHL4) (natural protein, Arabidopsis, UniProt Q8GXC2 1-397, looked up)
chain: MIPNDDDDANSMKNYPLNDDDANSMKNYPLNDDDANSMENYPLRSIPTELSHTCSLIPPSLPNPSEAAADMSFNSELNQIMARPCDMLPANGGAVGHNPFLEPGFNCPETTDWIPSPLPHIYFPSGSPNLIMEDGVIDEIHKQSDLPLWYDDLITTDEDPLMSSILGDLLLDTNFNSASKVQQPSMQSQIQQPQAVLQQPSSCVELRPLDRTVSSNSNNNSNSNNAAAAAKGRMRWTPELHEVFVDAVNQLGGSNEATPKGVLKHMKVEGLTIFHVKSHLQKYRTAKYIPVPSEGSPEARLTPLEQITSDDTKRGIDITETLRIQMEHQKKLHEQLESLRTMQLRIEEQGKALLMMIEKQNMGFGGPEQGEKTSAKTPENGSEESESPRPKRPRNEE
  stoichiometry N: 4
